Test results: the domain aggregation screens of Martell et al. (2025)

Test: soluble fraction after stress (log2 fold change); higher = more stays soluble; pooled small domains, quantitative proteomics
Details: stress: 75 degC
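Further: 20 min heating vs room temperature control held 20 min.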

“HMNASTVTLENFEGAKYDDVYGKYDYQFSVTYEQTDKYESGVIISQKPEAGTKIIKGSQVSLVVAT” and “HMNASVIADLFRQTGASVMIHGHTHRPDIHALEANGDAAFRAVLGAWHTEGSMIRVTQDDVTLIAFP” are within 0.2 log units of each other in “soluble fraction (log2)” value: 0.115 for the first, 0.0461 for the second.

First: HMNATLEQLTQREREIAVLMAEGLTNAQIGSRLNVSMASVKAHLSHIFTKLGVDNRVSAAMMVL
Second: HMNATPDMERYWASSAAEGRALEPLYAVSRGDGGEPLWWSPSRAQAERMAREEGGPLTVDRIDPP
The “soluble fraction (log2)” value of the first is lower: -0.868 for the first, 0.113 for the second.

Going from “HMNAVYAEERRAYILAALEKRGTVHSYELAEQMGVSRETIRRDIMELSNRGLLVKTHGGAIST” to “HMNAYEVLIPNIYIGQRVDQTLASLFPQFSRSRLQNWLARGNLLIDGEIIKPKTKVLGGEQIIILDT”, the “soluble fraction (log2)” value falls from -1.45 to -1.72.

First: HMNDAEEKAEAIEGVKNFMANMEKTDIDFKSKESVLLEQVEEIRKNYPVAQWPVIVKQLYNNIGRL
Second: HMNDIDKFVAALVDQDTMAGTNRAFDENDIQTMKNMSSIEDVKQYAVANGLSSGKVNNALISAGL
The “soluble fraction (log2)” value of the first is lower: -0.0997 for the first, 0.234 for the second.

“HMNDIQIILQEAVARLPKKQQLVFNMKYFDHLKYQEISEILGTSVGGLKASYFQAVKKIENYIINKH” and “HMNDRLFQILYLLLEKGTMTAPELSRALEVSVRTIYRDIDALSLAGVPVYATQGKNGGVSLLPNY” are within 0.2 log units of each other in “soluble fraction (log2)” value: -2.27 for the first, -2.46 for the second.

First: HMNDTLQEYFEALERLKSNNPINVPKNTKINNDSVALEAGRKRGSIKKSREIFAELIEAINNAS
Second: HMNDVEAIDDALKDLHKVSPDLAALVEMKFFGGMTEPEISEILGVSERTVRREWEKARAALLVLLE
The “soluble fraction (log2)” value of the first is higher: -0.303 for the first, -1.63 for the second.

First: HMNDVHELPYSSFIEMVERGHVISVTVKHINIEFESTKNENYRTIAPQAMTPPYLELLLKNKDSVKVTFLP
Second: HMNDVLVGAIPESASGSRLDKVMPSVFPPYSRSQLQVWLKQGRILMGNGIPSPRLIVSGGEVLSLVVPELP
The “soluble fraction (log2)” value of the first is lower: -1.98 for the first, -1.02 for the second.

Compared with “HMNEDFSEIIAAVKKFAVDNLSLSTLSDEELEEQIKTITDNMIGNRYVSIKNRVDIAQQVFSSIR”, “HMNEMEFAQRLRQFRKAKNLTQQELADRLGVSNKSVSRWESGSYPDVGTLVALARALGVTVDELLDPKA” is higher in “soluble fraction (log2)” value: -0.291 for the first, -0.00291 for the second.

Going from “HMNEMEWVAKLIDQLPERERMILQLREIEQYEFDQIASLMEIPEGTVRVYLSRIRKKIKKQFIEIQSH” to “HMNENFPYRLKEMVVVQSRTWPGINKPGGVGQVMKINPEAGTVNVKYVLGGSEKNIELKYVTSNDLNSK”, the “soluble fraction (log2)” value falls from 0.0404 to -0.489.

Compared with “HMNENYNLSKREKEVLDLLVNGKSYKVIATELAISYETVHSHIKKIYHKLHVSSIGEAVSKTIKQKIL”, “HMNEPITIALREAEEAANKILNEGVHSVELSPQNGYVRRLQHELIARYGLTSASRGSDPSRRVSVGAN” is higher in “soluble fraction (log2)” value: -3.11 for the first, -0.295 for the second.

First: HMNEQKVSSLLTPRQLAFIDEYLIDFNGAQAAIRAGYSHKTAGPQAARLLVNVNISRMIAERIEARNK
Second: HMNEQVAVVSGSQVNVRSGPGTTSAVVGQVSKGDNLPVLNQSGDWYQIKLPGGNAGWVAGWLVSLRPTT
The “soluble fraction (log2)” value of the first is lower: -2.5 for the first, 0.0105 for the second.

Going from “HMNESPVLAVLTPTERKVASLVAEGLTNQAIAARMILAEGTVKNHVSTLLHKLQAPDRTALALTLYKAFQ” to “HMNETRVDQAADLLLALLEKEPKSAAEILDEFEQAGFSKSGLYRAKDALGVVSIRKEGRWVWSLPHSLD”, the “soluble fraction (log2)” value rises from -1.3 to 0.438.

Compared with “HMNEYIVSAEQEGMRLDVFLTEQMEGSRSYIQSLIKGGHVTVGDKVGKANLRLTPDTVIHVEIPEPE”, “HMNEYLPEAVQKLLEVMEYDIPYTSNELMERLGLKAKEGFRRNYLHPAMEMKLIQMTIPDKPNSRNQRYLR” is lower in “soluble fraction (log2)” value: 0.0133 for the first, -2.13 for the second.

Going from “HMNFHLEHHIAELLYRSIRGELSDFERQELNQWRSDSPMHETLFMRLQDDEYIDEELGVFIK” to “HMNFKNMIDSLSGILFKKDPSAAIIDIGGVRLKVFITVGSYEQLPAKGEQVEILTYLHVKEDILNLYG”, the “soluble fraction (log2)” value rises from -2.76 to -1.85.

First: HMNFMDGFQSFFQESGAMNRPMTADVVSYRLPDGTVQQGNSTMRGLMDQYLKSIGQSPTTGVP
Second: HMNFRESVLAVFENSKQKYLDFDEIAKRLGLTRGFDRQALASMLNELTRNDEIVFTKRNKYTLPEN
The “soluble fraction (log2)” value of the first is higher: 0.0171 for the first, -0.524 for the second.

Going from “HMNGAVAEQARKQLMAALKASEFIAEEKLDEWLDALALPEDKRTAIVDAVDELDYEEAISELEN” to “HMNGDYFEYRYAVNGSRSTPPSLSKTSRNPSGWSTTVPTVGNLQYLWFTVAKINGETNSLIQNWSTPARQT”, the “soluble fraction (log2)” value falls from 0.429 to -1.88.

First: HMNGEAQTMYVTARTLNVRKGPGTSYAKAGTLSRGTAVQVVGFSGNWAKLSNGYYVSTSYLAKI
Second: HMNGKWKLRIIKELLHSNIRFGQILKNIPDISPKVLSQQLKEMEEDGIIERIVISEMPPNVEYVLTDMGE
The “soluble fraction (log2)” value of the first is lower: -4.25 for the first, -1.66 for the second.

“HMNGLNISYRMDGENVVETIVFPDATMIRTIAPNGVMTIKTIEDGSVSTSELKADYKLYKKIYESQY” and “HMNGSVLVTGGSVWIRAGASKETDGLGIVHKGDVLKRSGSDASGWRGVVYEGQNAFISAKYSSI” are within 0.2 log units of each other in “soluble fraction (log2)” value: -0.748 for the first, -0.89 for the second.

First: HMNGTEAIRRYIDQFASKHATTPRMLKLNERKQLIQELKNNGLLEIKKAVETVAQHLGISRASAYLYVKE
Second: HMNGVPDMSPVPEGARNSTLHAWAFGRLKNHPDNETGIREDLFRRGHASGLQDAELDQIWKSIKRTL
The “soluble fraction (log2)” value of the first is lower: -1.52 for the first, 0.00545 for the second.

“HMNGVSNETLIQKSALYEELNQPDLALKMINTALKKDSVNIEILHRLVTLLMSQEKNEEAILYNQKIIDH” and “HMNHSITLTERKNLLITGVKKIENFDKEEFLIETTMGFLVVKGDGLELIKLDTISGNVSIKGIVNGFTYID” are within 0.2 log units of each other in “soluble fraction (log2)” value: 0.0902 for the first, 0.15 for the second.

Going from “HMNIAAVIGQTGVLQDDLKAGEQGTVKADNKLWTAVLAEGEEAVKKEERVDIVAVEGVKLIVRRNI” to “HMNIDEIFLTKNEIYFSFEYQKKSQLDRYSKIISLDHRIDKNTAYAYANKKQFLNFINLNIDYKIIDNSF”, the “soluble fraction (log2)” value falls from 0.663 to -2.87.

“HMNIDEIIGKKAVVIESIDNLQGTGKVRYQGMEWTARAEEENDRIEKDAEVEIIAVKGVKLIVKMK” and “HMNIDNTWQPSEDVVEILTRSGINEDFINELIPEFIVYWTERPGTLVSYNSKFIEHVRLKWAQHSAEI” are within 0.2 log units of each other in “soluble fraction (log2)” value: -0.384 for the first, -0.375 for the second.

“HMNIDVAAEKQQLGPNADQIVKGTVTWMQGLVAKGIWSETDFEEGKIFTATADGINAINKIRRYYGEQT” and “HMNIEDFKDKVKELKQYTYQELVEDVKLKTDRADVILPASKIYLEAMQQAKVDSIIVPKVGLAEGVAR” are within 0.2 log units of each other in “soluble fraction (log2)” value: 0.0956 for the first, -0.012 for the second.

First: HMNIEEQVVAEVLVKDFMKQLTPRDIHILELRKNGYTYQEIAGQLGYHTHSAVKKRVDRLAEQWLAYTQGH
Second: HMNIFAHQIGKLRTERHLSQTDVAKRLYVSRQAVSKWENGDAEPSLDNLIALAKLFNVSLDNLITGQ
The “soluble fraction (log2)” value of the first is lower: -2.26 for the first, -1.78 for the second.

Compared with “HMNIGVEQIEQMERGALITLWQELIDKPLPRHMSIVFLRQVLAFEVQSKQNGGLPRGFITLLNKQAD”, “HMNIKITKSKNSEHYSIIYNTKINGKRTSKIYENIGNFEKLKLRAGEQEPIEWLKNYVSELNKKQKEDT” is higher in “soluble fraction (log2)” value: -0.826 for the first, 0.11 for the second.

Compared with “HMNIKYDFPTNSPLEMMRNLFDSNSQIINDLKDGFAMANSLNEQGLANFFAERIDKHQFWSWQLSASL”, “HMNILDPTVMKNILDKNHEEFIAIYESAPLGQKTIINSMVFDKRLNGENVDANILMYLQNKTNIDYINIEP” is lower in “soluble fraction (log2)” value: -0.201 for the first, -0.536 for the second.

First: HMNILNYIIENENQEVRVDKFLSDTIEDMSRSSVASIIEDGGLLVNDKLQNKKYKLKIGDKVQFTVPDPV
Second: HMNILVAISDTGEIWINKRRVDARAVQANIERLHAENPQGTVVIQADKQATTETLIKVMDASRAAGVFDVS
The “soluble fraction (log2)” value of the first is higher: 0.0982 for the first, -0.691 for the second.

Compared with “HMNINLDINTYTVKELEKLLKLEVPYSDNNVFEKKNLMVKMIQTSTIAETKKEELYIFLDNIYNRLTNNLE”, “HMNISLGALVTITDQKGRSHTVTLESGKQFFTNHGSINHDEIIKAGEGGVVASSSGMLYTIFTP” is higher in “soluble fraction (log2)” value: -1.59 for the first, -0.924 for the second.

“HMNISRESLIGQILATLNKNPEEGFNYKQIAKRLNITDSPGRQMISDLLRELSKHGSLQEISHGKYKIKV” and “HMNITHEINVKSKSKIDFLENNKNLAQFFLTKNPNQFNYNLVFSDKSELNIIKEKIESHKDIEDIDIRYG” are within 0.2 log units of each other in “soluble fraction (log2)” value: -0.237 for the first, -0.0863 for the second.

Compared with “HMNIVINVDTPTFEQMKATYQAPGTLPAGASFHAKLKGVTVTGYTKSHKVMFQGALANQEAARWQ”, “HMNIYFNIEDAVANAVVENGKMSAAIYEKNVDTGEVAKLAEVSMPVMGGNINITKTLLTKALISQLP” is higher in “soluble fraction (log2)” value: -1.88 for the first, -0.71 for the second.

First: HMNKAYLTVADMKKDKSLKNGDVVRTLGYYGYNDGDGAVYQIKDSHPEDYHIRLDNGLDAEQINY
Second: HMNKEHINLDSSKFLSLLNKTKISMSNDETRHYLNGIYIHPTVSNKSSYLTGVATDSHRLSSSSIPVD
The “soluble fraction (log2)” value of the first is higher: 0.185 for the first, -0.366 for the second.

Compared with “HMNKMIIELGEKLKALRTENHLRQDQVARLVNVEKSSISMYETGMRQPSYTTLVRLADVFNVTTDYLLGRK”, “HMNKPTSMYKLRLLLKHYHAGASKRWMADVLDISRSTLNVYLARIESLNLAFEEWEALSDLEVSRLLINP” is lower in “soluble fraction (log2)” value: -2.37 for the first, -3.22 for the second.

Compared with “HMNKVAQFYRELVSTLSERLRNGERDIDALVEQARVRISQSGELTQSEIENVIRAVRRDLEEFALSYEE”, “HMNLAISAYQQLKSDIIRGVYAPGEKLLMSRLKVRYGLGIGPMREALSQLVSEHLVTAASQRGYRVAGM” is lower in “soluble fraction (log2)” value: -0.0274 for the first, -1.79 for the second.

First: HMNLAPLLTEYVQINFRRASEMKTYLEQANLISERGFLLADDQTNILMVRETGASIEEIRRTLNRF
Second: HMNLFKAPMPGLIRTIVVAEGQEVKKGDVILILEAMKMENALKSPADLVVKSIKVQQGQAVEKNQLLIEF
The “soluble fraction (log2)” value of the first is higher: -1.92 for the first, -2.44 for the second.

First: HMNLGNLLKIYRKNSLLTQQQVADALNINRTTYTYYETGKTEPSIDTLHKLIKIFGITYDDLL
Second: HMNLKDINLNVRHYKIIDFVREHGYASIETLTRQFGVSAQTVRRDIIYLDNQAVLKRHHGGVGTLPG
The “soluble fraction (log2)” value of the first is lower: -2.88 for the first, -1.97 for the second.
